Source: US20120301878A1 (Memorial Sloan Kettering, published 2012)

Target: T1, FLAG-tagged p61 BRAF(V600E/R509H) (Homo sapiens, UniProt P15056 1-168; P15056 381-766)
T1 construct: domain: exons 1-3;domain: exons 9-18; Expressed in 293H cells; also called dimerization-deficient mutant; not shown: FLAG tag
Assay: co-immunoprecipitation of Flag- and V5-tagged forms from 293H cell lysate (FIG. 2C)
Procedure: FIG. 2C. To compare levels of dimerization, 293H cells co-expressing FLAG tagged and c-terminal V5-tagged p61BRAF(V600E), full length BRAF(V600E) and the corresponding dimerization-deficient mutants p61 BRAF(V600E/R509H) and BRAF(V600E/R509H) were lysed followed by immunoprecipitation with FLAG antibody. Western blots with V5 or FLAG antibodies were performed as indicated.
The inventors of the present invention then determined whether deletion of exons 4-8 promoted dimerization of p61 BRAF(V600E). To determine levels of dimerization, the inventors ectopically co-expressed two constructs encoding the same protein; either p61 BRAF(V600E) or full-length BRAF(V600E) with different tags (Flag or V5).

- binding result: no binding
B1: V5-tagged p61 BRAF(V600E/R509H) (enzyme, Homo sapiens, UniProt P15056 1-168, looked up)
chain: MAALSGGGGGGAEPGQALFNGDMEPEAGAGAGAAASSAADPAIPEEVWNIKQMIKLTQEHIEALLDKFGGEHNPPSIYLEAYEEYTSKLDALQQREQQLLESLGNGTDFSVSSSASMDTVTSSSSSSLSVLPSSLSVFQNPTDVARSNPKSPQKPIVRVFLPNKQRTVDLIRDQGFRGDGGSTTGLSATPPASLPGSLTNVKALQKSPGPQRERKSSSSSEDRNRMKTLGRRDSSDDWEIPDGQITVGQRIGSGSFGTVYKGKWHGDVAVKMLNVTAPTPQQLQAFKNEVGVLRKTHHVNILLFMGYSTKPQLAIVTQWCEGSSLYHHLHIIETKFEMIKLIDIARQTAQGMDYLHAKSIIHRDLKSNNIFLHEDLTVKIGDFGLATEKSRWSGSHQFEQLSGSILWMAPEVIRMQDKNPYSFQSDVYAFGIVLYELMTGQLPYSNINNRDQIIFMVGRGYLSPDLSKVRSNCPKAMKRLMAECLKKKRDERPLFPQILASIELLARSLPKIHRSASEPSLNRAGFQTEDFSLYACASPKTPIQAGGYGAFPVH
notes: domain: exons 1-3;domain: exons 9-18; Expressed in 293H cells; also called dimerization-deficient mutant; not shown: V5 tag at the C-terminus
